Measurements as given in US20220098256A1 (TOKUSHIMA UNIVERSITY, published 2022).
Blank lines part the entries; values can stand above or below the molecule they belong to. Positions of bridges follow the written chain, without caps; N, C: chain ends. Non-standard residues stand in square brackets, D forms with d. No end group written: not given here. Nle = CCCC[C@H](N)C(=O)O

What was measured:
[1] = target: brefeldin A-inhibited guanine nucleotide-exchange protein 3 (BIG3) (human) (UniProt Q5TH69); test: co-immunoprecipitation with anti-BIG3 antibody from peptide-treated MCF-7 cells, PHB2 immunoblot, band area against untreated cells; 50 µM peptide
[2] = target: brefeldin A-inhibited guanine nucleotide-exchange protein 3 (BIG3) (human) (UniProt Q5TH69); test: cell-based or functional assay
[3] = target: brefeldin A-inhibited guanine nucleotide-exchange protein 3 (BIG3) (human) (UniProt Q5TH69); test: co-immunoprecipitation with anti-BIG3 antibody from peptide-treated MCF-7 cells, PHB2 immunoblot, band area against untreated cells; 50 µM each peptide
[4] = target: brefeldin A-inhibited guanine nucleotide-exchange protein 3 (BIG3) (human) (UniProt Q5TH69); test: co-immunoprecipitation from peptide-treated MCF-7 cells, Western blotting; 10 µM each peptide
[5] = target: brefeldin A-inhibited guanine nucleotide-exchange protein 3 (BIG3) (human, UniProt Q5TH69 1-2177); test: cell-based or functional assay
Sequence of brefeldin A-inhibited guanine nucleotide-exchange protein 3 (BIG3) (Q5TH69 whole entry): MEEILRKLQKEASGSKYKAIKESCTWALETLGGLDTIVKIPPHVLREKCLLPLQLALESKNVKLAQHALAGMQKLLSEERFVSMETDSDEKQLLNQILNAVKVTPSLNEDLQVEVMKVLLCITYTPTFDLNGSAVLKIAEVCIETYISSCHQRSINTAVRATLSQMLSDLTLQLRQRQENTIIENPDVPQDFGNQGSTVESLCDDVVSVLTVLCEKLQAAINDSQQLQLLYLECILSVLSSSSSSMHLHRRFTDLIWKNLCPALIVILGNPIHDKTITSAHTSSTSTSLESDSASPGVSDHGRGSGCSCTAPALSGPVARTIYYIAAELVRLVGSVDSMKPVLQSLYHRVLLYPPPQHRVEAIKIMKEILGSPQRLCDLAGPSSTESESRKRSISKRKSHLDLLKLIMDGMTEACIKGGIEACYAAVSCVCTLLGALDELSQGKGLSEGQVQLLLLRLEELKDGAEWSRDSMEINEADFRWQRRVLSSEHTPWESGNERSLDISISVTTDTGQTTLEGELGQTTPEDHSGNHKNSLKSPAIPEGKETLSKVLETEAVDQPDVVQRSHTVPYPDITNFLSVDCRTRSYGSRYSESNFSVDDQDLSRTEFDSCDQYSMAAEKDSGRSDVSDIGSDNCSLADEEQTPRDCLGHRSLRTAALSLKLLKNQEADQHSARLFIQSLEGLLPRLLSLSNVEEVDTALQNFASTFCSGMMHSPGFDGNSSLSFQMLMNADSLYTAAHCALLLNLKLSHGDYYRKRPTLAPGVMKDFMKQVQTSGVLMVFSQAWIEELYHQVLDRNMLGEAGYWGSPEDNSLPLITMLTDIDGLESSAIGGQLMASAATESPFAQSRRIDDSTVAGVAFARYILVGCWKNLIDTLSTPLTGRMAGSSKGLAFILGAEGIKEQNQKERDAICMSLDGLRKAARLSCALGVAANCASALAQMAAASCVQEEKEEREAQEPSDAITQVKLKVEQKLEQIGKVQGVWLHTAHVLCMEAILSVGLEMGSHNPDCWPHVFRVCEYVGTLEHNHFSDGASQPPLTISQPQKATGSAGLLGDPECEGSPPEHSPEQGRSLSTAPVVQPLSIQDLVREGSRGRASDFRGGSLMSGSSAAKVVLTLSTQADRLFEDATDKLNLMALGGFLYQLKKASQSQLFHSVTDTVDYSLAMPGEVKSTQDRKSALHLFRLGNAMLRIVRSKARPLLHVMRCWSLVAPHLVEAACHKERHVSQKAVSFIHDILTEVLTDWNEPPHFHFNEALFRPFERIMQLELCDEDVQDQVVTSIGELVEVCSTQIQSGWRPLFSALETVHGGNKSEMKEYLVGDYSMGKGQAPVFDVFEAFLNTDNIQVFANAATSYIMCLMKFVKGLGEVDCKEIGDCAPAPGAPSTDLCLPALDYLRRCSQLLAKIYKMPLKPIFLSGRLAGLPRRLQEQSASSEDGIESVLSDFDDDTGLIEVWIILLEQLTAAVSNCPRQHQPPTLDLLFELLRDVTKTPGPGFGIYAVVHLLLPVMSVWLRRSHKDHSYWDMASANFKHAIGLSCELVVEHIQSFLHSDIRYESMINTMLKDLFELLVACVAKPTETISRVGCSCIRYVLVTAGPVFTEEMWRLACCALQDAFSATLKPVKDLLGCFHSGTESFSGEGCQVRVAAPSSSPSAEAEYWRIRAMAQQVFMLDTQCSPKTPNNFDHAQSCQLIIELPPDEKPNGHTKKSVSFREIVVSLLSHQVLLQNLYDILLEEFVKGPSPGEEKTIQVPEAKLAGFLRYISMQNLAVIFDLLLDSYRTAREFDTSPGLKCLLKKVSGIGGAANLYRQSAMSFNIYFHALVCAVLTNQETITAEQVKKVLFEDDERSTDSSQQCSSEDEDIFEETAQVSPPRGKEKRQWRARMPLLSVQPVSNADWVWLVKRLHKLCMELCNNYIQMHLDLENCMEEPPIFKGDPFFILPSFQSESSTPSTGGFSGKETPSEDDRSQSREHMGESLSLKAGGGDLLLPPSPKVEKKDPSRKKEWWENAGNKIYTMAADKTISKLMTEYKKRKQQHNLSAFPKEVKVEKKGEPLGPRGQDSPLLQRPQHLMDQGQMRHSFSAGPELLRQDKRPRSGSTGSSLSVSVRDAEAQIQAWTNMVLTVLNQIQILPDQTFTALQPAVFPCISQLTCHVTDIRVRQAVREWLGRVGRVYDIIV

Sequence of brefeldin A-inhibited guanine nucleotide-exchange protein 3 (BIG3) (human) (Q5TH69 whole entry): as above

Molecule: PHB2 sequence-derived peptide No. 1 (11-22aa)
inhibition ratio of the binding between BIG3 and PHB2 [1]: 64%
IC50 against growth of triple-negative breast cancer cell line MDA-MB-231, 96 h [2]: 0.462 µM
Ser39 phosphorylation of PHB2, band intensity compared to ERAP treatment [2]: 40%
suppression of estrogen-dependent growth of MCF-7, 10 µM, 24 h [2]: 65%
suppression of growth of MDA-MB-231, peptide alone at its IC50, 96 h [2]: 50%
suppression ratio of E2-dependent growth of MCF-7, 10 µM, 24 h [2]: 63%
suppression ratio of E2-dependent growth of MCF-7, peptide alone [2]: 65%
suppression ratio of estrogen (E2)-dependent growth of MCF-7, 10 µM, 24 h [2]: 58%

Molecule: PHB2 sequence-derived peptide No. 5 (76-90aa)
inhibition ratio of the binding between BIG3 and PHB2 [1]: 80%
IC50 against growth of triple-negative breast cancer cell line MDA-MB-231, 96 h [2]: 0.273 µM
Ser39 phosphorylation of PHB2, band intensity compared to ERAP treatment [2]: 20%
suppression of growth of MDA-MB-231, peptide alone at its IC50, 96 h [2]: 50%
suppression ratio of E2-dependent growth of MCF-7, 10 µM, 24 h [2]: 51%
suppression ratio of E2-dependent growth of MCF-7, peptide alone [2]: 55%
suppression ratio of estrogen (E2)-dependent growth of MCF-7, 10 µM, 24 h [2]: 49%
suppression ratio of estrogen-dependent growth of MCF-7, 10 µM, 24 h [2]: 54%

B1: PHB2 sequence-derived peptide No. 6 (86-100aa) (peptide)
peptide: RPRKISSPTGSKDLQRRRRRRRR-NH2
suppression ratio of E2-dependent growth of MCF-7, peptide alone [5]: ~10%

B2: PHB2 peptide 11-90aa (peptide)
peptide: RLPAGPRGMGTALKLLLGAGAVAYGVRESVFTVEGGHRAIFFNRIGGVQQDTILAEGLHFRIPWFQYPIIYDIRARPRKI
Ser39 phosphorylation of PHB2, relative to ERAP treatment [5]: 30%
suppression ratio of E2-dependent growth of MCF-7, 24 h, 50 µM [5]: 57%

B7: PHB2 peptide 11-22aa with glycines at positions 15 and 18 substituted with D-leucines (peptide)
peptide: RLPA[dL]PR[dL]MGTARRRRRRRR
modifications: not fully specified (C-terminus)
suppression ratio of estrogen-dependent growth of MCF-7 [5]: ~65%

B9: PHB2 sequence-derived peptide No. 82 (peptide)
peptide: EGGHRAIFFNRIGG
modifications: not fully specified (C-terminus)
suppression ratio of estrogen-dependent growth of MCF-7, 10 µM, 24 h [5]: 59%

B10: PHB2 sequence-derived peptide No. 39 (peptide)
peptide: PAGPRGMGTALK
modifications: not fully specified (C-terminus)
suppression ratio of E2-dependent growth of MCF-7, in combination with 10 µM No. 5 (76-90aa) [5]: ≥ 90%

B14: PHB2 sequence-derived peptide No. 3 (38-50aa) (peptide)
peptide: ESVFTVEGGHRAIRRRRRRRR-NH2
suppression ratio of estrogen-dependent growth of MCF-7, 10 µM, 24 h [5]: 17%

B15: PHB2 sequence-derived peptide No. 2 (42-50aa) (peptide)
peptide: TVEGGHRAIRRRRRRRR-NH2
suppression ratio of estrogen-dependent growth of MCF-7, 10 µM, 24 h [5]: 20%

B16: PHB2 sequence-derived peptide No. 40 (peptide)
peptide: GPRGMGTALKLL
modifications: not fully specified (C-terminus)
suppression ratio of E2-dependent growth of MCF-7, in combination with 10 µM No. 5 (76-90aa) [5]: ≥ 90%

B17: PHB2 sequence-derived peptide No. 37 (peptide)
peptide: DLAGRLPAGPRG
modifications: not fully specified (C-terminus)
suppression ratio of E2-dependent growth of MCF-7, in combination with 10 µM No. 5 (76-90aa) [5]: ≥ 90%

B18: PHB2 sequence-derived peptide No. 36 (peptide)
peptide: LKDLAGRLPAGP
modifications: not fully specified (C-terminus)
suppression ratio of E2-dependent growth of MCF-7, in combination with 10 µM No. 5 (76-90aa) [5]: ≥ 90%

B19: PHB2 sequence-derived peptide No. 38 (peptide)
peptide: AGRLPAGPRGMG
modifications: not fully specified (C-terminus)
suppression ratio of E2-dependent growth of MCF-7, in combination with 10 µM No. 5 (76-90aa) [5]: ≥ 90%

Results, then the molecule that gave them:

Ser39 phosphorylation of PHB2, band intensity compared to ERAP treatment [2]: 70%
growth suppressive effect on E2-dependent growth of MCF-7 [2]: 88%
suppression of E2-dependent growth of MCF-7, 10 µM each [2]: 100%
suppression of growth of MDA-MB-231, both peptides at their IC50, 96 h [2]: 62%
inhibition ratio of the binding between BIG3 and PHB2 [3]: 87%
inhibition ratio of the interaction between BIG3 and PHB2 [4]: 67%
Molecule: combination of PHB2 peptides No. 1 (11-22aa) and No. 5 (76-90aa)

suppression of E2-dependent growth of MCF-7, 4 µM cyclic 11-21aa and 2 µM cyclic 76-88aa, 24 hours [2]: 82%
suppression ratio of E2-dependent growth of MCF-7, 4 µM cyclic 11-21aa and 2 µM cyclic 76-88aa, up to 96 hours [2]: 88%
suppression ratio of E2-dependent growth of MCF-7, 10 µM each, 24 h [2]: 96%
inhibition ratio of the interaction between BIG3 and PHB2 [4]: 81%
Molecule: combination of cyclic PHB2 peptides 11-21aa and 76-88aa

suppression ratio of estrogen-dependent growth of MCF-7, 10 µM, 24 h [5]: 37%
B3: alanine-mutated PHB2 peptide No. 72 (peptide)
peptide: QYPIIADIRARPRKI
modifications: not fully specified (C-terminus)

suppression ratio of estrogen-dependent growth of MCF-7, 10 µM, 24 h [5]: 38%
B4: alanine-mutated PHB2 peptide No. 71 (peptide)
peptide: QYPIAYDIRARPRKI
modifications: not fully specified (C-terminus)

suppression ratio of estrogen-dependent growth of MCF-7, 10 µM, 24 h [5]: 8%
B5: alanine-mutated PHB2 peptide No. 62 (peptide)
peptide: RLPAGPRAMGTA
modifications: not fully specified (C-terminus)

IC50 for E2-dependent growth of MCF-7 [5]: 4.06 µM
suppression ratio of E2-dependent growth of MCF-7, 4 µM, up to 96 hours [5]: 41%
suppression ratio of E2-dependent growth of MCF-7, 10 µM, 24-hour treatment [5]: 53%
suppression ratio of E2-dependent growth of MCF-7, 10 µM, after 96 hours [5]: 67%
B6: cyclic PHB2 peptide 11-21aa (peptide)
peptide: CRLPAGPRG[Nle]GTCF[Nal]RRRR
modifications: disulfide 1-13; not fully specified; also: amide bond between the added C-terminal and N-terminal residues (cyclic)

IC50 for E2-dependent growth of MCF-7 [5]: 2.11 µM
suppression ratio of E2-dependent growth of MCF-7, 2 µM, up to 96 hours [5]: 59%
suppression ratio of E2-dependent growth of MCF-7, 10 µM, 24-hour treatment [5]: 58%
suppression ratio of E2-dependent growth of MCF-7, 10 µM, after 96 hours [5]: 72%
B8: cyclic PHB2 peptide 76-88aa (peptide)
peptide: CQYPIIYDIRARPRCF[Nal]RRRR
modifications: disulfide 1-15 (inferred); not fully specified; also: X17: an unnatural amino acid, amide bond between the added C-terminal and N-terminal residues (cyclic)

suppression ratio of estrogen-dependent growth of MCF-7, 10 µM, 24 h [5]: 19%
B11: alanine-mutated PHB2 peptide No. 59 (peptide)
peptide: RLPAAPRGMGTA
modifications: not fully specified (C-terminus)

suppression ratio of estrogen-dependent growth of MCF-7, 10 µM, 24 h [5]: 61%
B12: PHB2 sequence-derived peptide No. 83 (peptide)
peptide: ESVFTVEGGHRAIFFNRIGG
modifications: not fully specified (C-terminus)

suppression ratio of estrogen-dependent growth of MCF-7, 10 µM, 24 h [5]: 13%
B13: alanine-mutated PHB2 peptide No. 73 (peptide)
peptide: QYPIIYAIRARPRKI
modifications: not fully specified (C-terminus)
